From IntAct's records for PubMed 18494562

B1: Raf homolog serine/threonine-protein kinase Raf (Drosophila melanogaster (Fruit fly)), P11346 (parent)
chain: MSSESSTEGDSDLYDPLAEELHNVQLVKHVTRENIDALNAKFANLQEPPAMYLIEYQELTSKLHELEAKEQELMERLNSQDQQEDSSLVERFKEQPHYQNQTQILQQQRQLARVHHGNDLTDSLGSQPGSQCGTLTRQPKILLRAHLPNQQRTSVEVISGVRLCDALMKALKLRQLTPDMCEVSTTHSGRHIIPWHTDIGTLHVEEIFVRLLDKFPIRTHIKHQIIRKTFFSLVFCEGCRRLLFTGFYCSQCNFRFHQRCANRVPMLCQPFPMDSYYQLLLAENPDNGVGFPGRGTAVRFNMSSRSRSRRCSSSGSSSSSKPPSSSSGNHRQGRPPRISQDDRSNSAPNVCINNIRSVTSEVQRSLIMQARPPLPHPCTDHSNSTQASPTSTLKHNRPRARSADESNKNLLLRDAKSSEENWNILAEEILIGPRIGSGSFGTVYRAHWHGPVAVKTLNVKTPSPAQLQAFKNEVAMLKKTRHCNILLFMGCVSKPSLAIVTQWCEGSSLYKHVHVSETKFKLNTLIDIGRQVAQGMDYLHAKNIIHRDLKSNNIFLHEDLSVKIGDFGLATAKTRWSGEKQANQPTGSILWMAPEVIRMQELNPYSFQSDVYAFGIVMYELLAECLPYGHISNKDQILFMVGRGLLRPDMSQVRSDAPQALKRLAEDCIKYTPKDRPLFRPLLNMLENMLRTLPKIHRSASEPNLTQSQLQNDEFLYLPSPKTPVNFNNFQFFGSAGNI
B2: Raf homolog serine/threonine-protein kinase Raf (Drosophila melanogaster (Fruit fly)), P11346 (parent)
chain: B1 chain
partner: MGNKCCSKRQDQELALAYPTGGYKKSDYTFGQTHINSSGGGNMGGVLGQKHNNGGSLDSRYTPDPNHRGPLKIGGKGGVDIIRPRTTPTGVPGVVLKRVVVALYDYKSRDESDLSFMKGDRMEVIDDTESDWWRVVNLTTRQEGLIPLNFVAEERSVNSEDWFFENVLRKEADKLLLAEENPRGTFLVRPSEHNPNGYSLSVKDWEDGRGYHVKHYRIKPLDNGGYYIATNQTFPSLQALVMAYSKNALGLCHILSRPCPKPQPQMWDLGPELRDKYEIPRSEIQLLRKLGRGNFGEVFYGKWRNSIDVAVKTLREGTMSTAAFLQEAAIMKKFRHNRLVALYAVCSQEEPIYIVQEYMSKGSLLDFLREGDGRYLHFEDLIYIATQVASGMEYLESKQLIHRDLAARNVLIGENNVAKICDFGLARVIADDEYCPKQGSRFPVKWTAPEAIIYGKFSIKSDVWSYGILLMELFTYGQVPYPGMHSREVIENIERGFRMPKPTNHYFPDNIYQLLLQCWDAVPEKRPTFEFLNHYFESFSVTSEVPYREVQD

Variants of: B1
Settings: with dsor1_drome Dsor1, Q24324
Chain of dsor1_drome Dsor1, Q24324 (Q24324 whole entry): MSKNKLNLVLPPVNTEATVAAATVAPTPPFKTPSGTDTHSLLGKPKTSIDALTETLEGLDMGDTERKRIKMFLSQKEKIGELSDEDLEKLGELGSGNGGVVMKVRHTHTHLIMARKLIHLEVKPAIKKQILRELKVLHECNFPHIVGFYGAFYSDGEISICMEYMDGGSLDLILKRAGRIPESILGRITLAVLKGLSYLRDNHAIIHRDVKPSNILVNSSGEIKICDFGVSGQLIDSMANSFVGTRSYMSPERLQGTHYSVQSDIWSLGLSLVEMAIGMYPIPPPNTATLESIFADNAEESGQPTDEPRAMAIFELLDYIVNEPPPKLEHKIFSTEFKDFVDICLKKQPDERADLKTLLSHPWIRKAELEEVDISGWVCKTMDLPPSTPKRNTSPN

effect of a mutation on the interaction	Variant
increasing interaction	Y510E

Variants of: B2
Settings: with src64_drome Src64B

effect of a mutation on the interaction	Variant
disrupting interaction	Y510F
